According to patent publication US20250213707A1, “COMPOUND FOR INCREASING EFFICACY OF ONCOLYTIC VIRUSES” (ABLEVIA BIOTECH GMBH, priority 2022, published 2025):

Target: mAb Mac2-158
Experiment: circular peptide array

Row | Binder | rank of binding signal [rank]
1 | VQEEWGTVCNNGW (modifications not checked) | 18
2 | EWGTVCNNGWSME (modifications not checked) | 4
3 | CSGRVEVKVQEEW (modifications not checked) | 7
4 | ESALWDC (modifications not checked) | 1
5 | SCRGNESALW (modifications not checked) | 3
6 | ALWDCKHDGW (modifications not checked) | 6
7 | WGTVCNNGWS (modifications not checked) | 20
8 | CRGNESALWD (modifications not checked) | 11
9 | VSCRGNESALWDC (modifications not checked) | 5
10 | DHVSCRGNESALW (modifications not checked) | 8
11 | QEEWGTVCNNGWS (modifications not checked) | 9
12 | EWGTVCNNGW (modifications not checked) | 19
13 | EEWGTVCNNGWSM (modifications not checked) | 14
14 | WGTVCNNGWSMEA (modifications not checked) | 12
15 | RGNESALWDC (modifications not checked) | 2
16 | ESALWDCKHDGWG (modifications not checked) | 17
17 | NESALWDCKHDGW (modifications not checked) | 13
